# Data taken from publication PMC10332591.
# Where “and” joins values, the source holds several entries; their conditions need not be identical. Equal values may be shown once.
# Target: human CD64 (FcγRI) (human) (UniProt P12314)
# Assay: BLI; Octet RED96; biotinylated human CD64, CD32a or CD16a loaded on streptavidin biosensors; serially diluted ARX788 drug substance in HBS-P+ buffer; global fit, Langmuir 1:1 model; for CD32a and CD16a only 3.0 seconds of the dissociation step fitted to avoid avidity effects
# Chain of human CD64 (FcγRI) (human) (P12314 16-374): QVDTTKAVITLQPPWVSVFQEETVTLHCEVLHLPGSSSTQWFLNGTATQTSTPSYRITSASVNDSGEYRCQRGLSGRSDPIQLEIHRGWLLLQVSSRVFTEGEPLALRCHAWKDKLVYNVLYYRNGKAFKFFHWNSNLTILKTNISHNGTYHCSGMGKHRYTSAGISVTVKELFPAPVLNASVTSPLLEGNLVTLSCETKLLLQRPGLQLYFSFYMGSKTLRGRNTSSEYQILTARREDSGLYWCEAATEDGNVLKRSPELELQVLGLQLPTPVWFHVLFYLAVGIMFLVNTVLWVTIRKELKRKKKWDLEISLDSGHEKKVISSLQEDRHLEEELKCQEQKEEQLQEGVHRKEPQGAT
substance,measurement,value
ARX788 (antibody),KD ratio (Sample/RS),0.98 and 0.89 and 1
